# B1: IL-12: growth factor found in TCM, added to HUVECs at published B-max concentration (protein, UniProt P29459 23-219; P29460 23-328, looked up)
# Interleukin-12 subunit alpha: RNLPVATPDPGMFPCLHHSQNLLRAVSNMLQKARQTLEFYPCTSEEIDHEDITKDKTSTVEACLPLELTKNESCLNSRETSFITNGSCLASRKTSFMMALCLSSIYEDLKMYQVEFKTMNAKLLMDPKRQIFLDQNMLAVIDELMQALNFNSETVPQKSSLEEPDFYKTKIKLCILLHAFRIRAVTIDRVMSYLNAS
# Interleukin-12 subunit beta: IWELKKDVYVVELDWYPDAPGEMVVLTCDTPEEDGITWTLDQSSEVLGSGKTLTIQVKEFGDAGQYTCHKGGEVLSHSLLLLHKKEDGIWSTDILKDQKEPKNKTFLRCEAKNYSGRFTCWWLTTISTDLTFSVKSSRGSSDPQGVTCGAATLSAERVRGDNKEYEYSVECQEDSACPAAEESLPIEVMVDAVHKLKYENYTSSFFIRDIIKPDPPKNLQLKPLKNSRQVEVSWEYPDTWSTPHSYFSLTFCVQVQGKSKREKKDRVFTDKTSATVICRKNASISVRAQDRYYSSSWSEWASVPCS
# System: hornerin
# Experiment: Immunoblot of hornerin in HUVECs treated with growth factors
# Format: cell-based, human
# Details: 24 hours treatment; growth factors at published B-max concentrations, EGF at increasing concentrations
# Experimental: HUVECs were cultured in 10 cm dishes for 24 hours prior to a change to media containing VEGF (at B-max concentration), TCM, or VC. After 24 hours treatment, the cells were washed with DPBST two times and lysed with radioimmunoprecipitation assay (RIPA) buffer (Thermo Scientific). Lysate protein concentrations were measured by the bicinchoninic acid assay (Pierce, Waltham, MA, USA) and equivalent amounts of protein were loaded into precast 4-15% tris-glycine eXtended (TGX) polyacrylamide gels (Bio-Rad, Hercules, CA, USA). The proteins were resolved by electrophoresis and transferred to nitrocellulose membranes using the iBlot system (Invitrogen, Carlsbad, CA, USA). The membranes were then washed in Tris-buffered saline+1% Tween-20 (TBST), blocked for 30 minutes in TBST+2% milk solution, and incubated overnight at 4° C. with primary antibodies anti-hornerin (Abcam, Cambridge, UK, ab78909; (1:1000)) and anti-HSP90 (Cell Signaling Technology, Danvers, MA, USA, 4877; (1:1000)). The following day the membranes were washed and subsequently incubated with the secondary antibodies anti-goat HRP (R&D Systems, Minneapolis, MN, USA, HAF109; 1:5000) and anti-rabbit HRP (GE Healthcare, NA934V; 1:5000) for 45 minutes at RT. […]
# Major constituents of TCM were determined using a Human Angiogenesis Antibody Array (Affymetrix, Santa Clara, CA, USA) per manufacturer's instructions. […]
molecule,measurement,value
B1,hornerin expression in HUVECs,might stimulate hornerin expression

# Reference: US12059429B2, “Hornerin: a novel non-VEGF mediated angiogenic protein expressed in both human and mouse angiogenic endothelial cells and human pancreatic cancer cells” (University of Virginia Patent Foundation, priority 2018, dated 2024)
